Results reported in article PMC9527358, “Oligomeric state of the aspartate:alanine transporter from Tetragenococcus halophilus” (Journal of Biochemistry, 2022).

B1: aspartate:alanine antiporter (AspT) of Tetragenococcus halophilus, wild type, histidine-tagged (natural protein, UniProt Q8L3K8 1-543, looked up)
chain: MNAIGNFLVGTPVFTIFICLALGYLLGKLKIGSFTLGATVGVLIVALLIGQLGVFPRDTLLGDIFFDFFMFAIGYRVGPSFISSMKKFGAKIVYATLIFLVSAFIVAYACFKMFHIGPGIAAGIIAGGLTQSAVIGSSLETISKLPISDHLKTLYSNQIPIVYTLTYVFGTIGVLIFLRDIMPKLMHIDLKKQAVKTAKELDMIPVPVIVASTHFYTINDGSSLIGQTLGTVNTKFAKGLVAAGLNDSADMASVINAGDVLAISGGIDEIGRAVQEFNLLEVTGKTKAYVSKQVVLKKNFSADVLKNAQDKGVLVATLAGDVMDPAQFSTLKPAESVTLVGQKDAVSEVQSQLGRLRAAENIINYSWFALGIALSAALGIVGTKVSGVPIALGGGTASLIVGLVQSIYRDKHAHMDTIPDSLLEFFQSIGLNLFIATVGLSAAKTFISAIQSMGISVLLIGAVISILPHIITFVICYYLMKMEPISIIGAQTGADTLSAALNDVSERVGSDASPFFAAAVAPAYAIGNIFLTLMGPIFIVLLS
notes: aspartate:alanine antiporter AspT, Tetragenococcus halophilus, 543 amino-acid residues (57.2 kDa); expressed from the asp operon in pTrc99A (pTrcAspD/T-His); also called AspT WT; WT; source: Ni Sepharose Excel and SEC for the comparison with L60C; not shown: His6, internal (in loop 5), kept

What was measured:
[1] = biological target: AspT L60C mutant (three endogenous Cys replaced with alanine, then leucine 60 replaced with Cys) (Tetragenococcus halophilus) (UniProt Q8L3K8); experiment: cross-linking; spontaneous inter-molecular disulphide; purified protein (0.5 ug) in SDS sample buffer without 2-mercaptoethanol (non-reducing) or with 5% (reducing), 37°C 30 min; SDS-PAGE (Coomassie) and western blot with a His-tag antibody
[2] = biological target: the molecule itself; experiment: SEC-MALS; purified AspT in DDM (2.4 mg/ml, dialysed); Superdex 200 Increase 10/300 GL; 20 mM HEPES-NaOH pH 7.0, 500 mM NaCl, 200 mM Asp-KOH, 0.01% DDM, 20% glycerol; 0.8 ml/min; MALS, RI and UV detectors

| Molecule | stoichiometry N [1] | stoichiometry N [2] |
| --- | --- | --- |
| AspT L60C mutant (three endogenous Cys replaced with alanine, then leucine 60 replaced with Cys) (from UniProt Q8L3K8 1-543) (natural protein) | 2 | – |
| B1 | – | 2 |
